Results reported in paper PMC2789240, “Comparative structural, kinetic and inhibitor studies of Trypanosoma brucei trypanothione reductase with T. cruzi^☆” (Molecular and Biochemical Parasitology, 2010).

Target: the molecule itself
Test: SEC; 600 ug TbTryR on Superdex 200 10/300, 25 mM HEPES pH 7.5, 100 mM NaCl; mass from BioRad gel filtration standards; data not shown

B1: Trypanosoma brucei brucei trypanothione reductase (enzyme, T. b. brucei, UniProt P39051 1-492, looked up)
chain: MSKIFDLVVIGAGSGGLEAGWNAATLYKKRVAVIDVQTHHGPPHYAALGGTCVNVGCVPKKLMVTGAQYMDHLRESAGFGWEFDGSSVKANWKKLIAAKNEAVLDINKSYEGMFNDTEGLDFFLGWGSLESKNVVVVRETADPKSAVKERLQADHILLATGSWPQMPAIPGVEHCISSNEAFYLPEPPRRVLTVGGGFISVEFAGIFNAYKPPGGKVTLCYRNNLILRGFDETIREEVTKQLTANGIEIMTNENPAKVSLNTDGSKHVTFESGKTLDVDVVMMAIGRIPRTNDLQLGNVGVKLTPKGGVQVDEFSRTNVPNIYAIGDITDRLMLTPVAINEGAALVDTVFGNKPRKTDHTRVASAVFSIPPIGTCGLIEEVAAKEFEKVAVYMSSFTPLMHNISGSKYKKFVAKIVTNHSDGTVLGVHLLGDGAPEIIQAVGVCLRLNAKISDFYNTIGVHPTSAEELCSMRTPSYYYLKGEKMETLPESSL
notes: Trypanothione reductase, T. b. brucei strain S427 (MITat 1.4); complete open reading frame amplified from start to stop codon; identical at the amino acid level to genome strain 927 (GeneDB Tb10.406.0520) and to T. b. gambiense TryR; calculated subunit mass 53,156 Da; Flavoprotein: each subunit carries 1 FAD (and 1 NADPH in the crystal); In the crystal model the first residue and the last 2 …
stoichiometry N: 2
